Reference: US20210393800A1, “PREPARATION AND APPLICATION OF SUPRAMOLECULAR SELF-ASSEMBLED HYALURONIC ACID HYDROGEL” (PHI BioMed Inc., priority 2018, published 2021)

Test: Protein release experiment (EGF in supernatant by HPLC)
Format: physicochemical
Settings: 20 ug/ml in HA-Ad/HA-CD hydrogel, 500 ul PBS; for amount of EGF released over time (rank order): supernatant by HPLC according to date
Method: Aldehyde groups were introduced to the hyaluronic acid-adamantane (HA-Ad) derivative and hyaluronic acid (HA) using […].
The HA-Ad derivative and HA, to which the aldehyde group had been introduced, were allowed to react with an EGF protein using sodium cyanoborohydride to induce an aldehyde-amine reaction, thereby preparing conjugates. Through the aldehyde-amine reaction, a HA-Ad-EGF conjugate and a HA-EGF conjugate were prepared.
Each of EGF, the prepared HA-Ad-EGF conjugate, and the prepared HA-EGF conjugate was added at a concentration of 20 ug/ml to a 5 wt % hyaluronic acid-adamantane (HA-Ad) derivative solution. 50 ul of a 5 wt % hyaluronic acid-cyclodextrin (HA-CD) derivative solution was added to 50 ul of each of the resulting solutions and then mixed to prepare a hydrogel.
The hydrogel was input into an E-tube and centrifuged to remove air bubbles inside the gel. 500 ul of PBS was added to each hydrogel.
The concentration of EGF included in a supernatant was analyzed by high-performance liquid chromatography (HPLC) according to date.

| Substance | protein release behaviour | amount of EGF released over time (rank order) |
| --- | --- | --- |
| HA-Ad-EGF: EGF protein bound to aldehyde-modified HA-Ad derivative through an aldehyde-amine reaction; carried in the hydrogel | release a constant concentration of protein most slowly for a long period of time | HA-Ad-EGF<HA-EGF<EGF |
| EGF: EGF protein used by itself in preparation of the hydrogel | – | HA-Ad-EGF<HA-EGF<EGF |
| HA-EGF: EGF protein bound to aldehyde-modified hyaluronic acid through an aldehyde-amine reaction; carried in the hydrogel | – | HA-Ad-EGF<HA-EGF<EGF |
